Test results reported in article PMC7984459.

Molecular target: Epac1-camps-PDE4A1
Assay: molecular brightness analysis

- stoichiometry N: 2
Substance: Epac1-camps-PDE4A1
